Data reported in IntAct's records for PubMed 23756461.

B1: Cell division protein FtsZ (Escherichia coli (strain K12)), P0A9A6 (parent)
chain: MFEPMELTNDAVIKVIGVGGGGGNAVEHMVRERIEGVEFFAVNTDAQALRKTAVGQTIQIGSGITKGLGAGANPEVGRNAADEDRDALRAALEGADMVFIAAGMGGGTGTGAAPVVAEVAKDLGILTVAVVTKPFNFEGKKRMAFAEQGITELSKHVDSLITIPNDKLLKVLGRGISLLDAFGAANDVLKGAVQGIAELITRPGLMNVDFADVRTVMSEMGYAMMGSGVASGEDRAEEAAEMAISSPLLEDIDLSGARGVLVNITAGFDLRLDEFETVGNTIRAFASDNATVVIGTSLDPDMNDELRVTVVATGIGMDKRPEITLVTNKQVQQPVMDRYQQHGMAPLTQEQKPVAKVVNDNAPQTAKEPDYLDIPAFLRKQAD
B2: Cell shape-determining protein MreB (Escherichia coli (strain K12)), P0A9X4 (parent)
chain: MLKKFRGMFSNDLSIDLGTANTLIYVKGQGIVLNEPSVVAIRQDRAGSPKSVAAVGHDAKQMLGRTPGNIAAIRPMKDGVIADFFVTEKMLQHFIKQVHSNSFMRPSPRVLVCVPVGATQVERRAIRESAQGAGAREVFLIEEPMAAAIGAGLPVSEATGSMVVDIGGGTTEVAVISLNGVVYSSSVRIGGDRFDEAIINYVRRNYGSLIGEATAERIKHEIGSAYPGDEVREIEVRGRNLAEGVPRGFTLNSNEILEALQEPLTGIVSAVMVALEQCPPELASDISERGMVLTGGGALLRNLDRLLMEETGIPVVVAEDPLTCVARGGGKALEMIDMHGGDLFSEE

Variants of: B1
Details: with mreb_ecoli mreB

| Variant | effect of a mutation on the interaction |
| --- | --- |
| MFEPMELTNDAVIKVIGVGGGGGNAVEHMVRERIEGVEFFAVNTDAQALRKTAVGQTIQIGSGITKGLGAGANPEVGRNAADEDRDALRAALEGADMVFIAAGMGGGTGTGAAPVVAEVAKDLGILTVAVVTKPFNFEGKKRMAFAEQGITELSKHVDSLITIPNDKLLKVLGRGISLLDAFGAANDVLKGAVQGIAELITRQGLMNVDFADVRTVMSEMGYAMMGSGVASGEDRAEEAAEMAISSPLLEDIDLSGARGVLVNITAGFDLRLDEFETVGNTIRAFASDNATVVIGTSLDPDMNDELRVTVVATGIGMDKRPEITLVTNKQVQQPVMDRYQQHGMAPLTQEQKPVAKVVNDNAPQTAKEPDYLDIPAFLRKQAD [P203Q] | disrupting interaction |

Variants of: B2
Details: with ftsz_ecoli ftsZ

| Variant | effect of a mutation on the interaction |
| --- | --- |
| D285A | disrupting interaction |
